# Experimental data published in patent publication US20240173352A1.
# Key:
# [1] = target: HLA-A*02 blocker antigen on beads (human); test: cell-based or functional assay
# [2] = target: HLA-A*02 (on target cells) (human); test: cell-based or functional assay
substance,measurement,setting,value
HLA-A*02 PA2.1 ScFv LIR1 inhibitor (C1765) (from UniProt Q8NHL6 399-650) (receptor),"shift of the EGFR CAR EMAX, cell-free bead assay",[1],> 9 fold
same,"shift of the MSLN CAR EMAX, cell-free bead assay",[1],> 12 fold
same,Emax shift of the CD19-CAR activator in Jurkat cells,[2],> 10 fold
same,"inhibition of IFNγ induction in primary T cells (MSLN CAR), HeLa target cells expressing HLA-A*02",[2],> 5 fold
same,"inhibition of IFNγ induction in primary T cells (MSLN CAR), SiHa target cells expressing HLA-A*02",[2],> 10 fold
same,"shift of the CD19 CAR EMAX, NALM6 target cells",[2],> 5 fold
same,"shift of the EGFR CAR (CT479) EMAX, Jurkat NFAT-luciferase, HLA-A*02 transduced HeLa target cells",[2],> 5 fold
same,"shift of the EGFR CAR EMAX, HeLa target cells",[2],> 5 fold
same,"shift of the EGFR CAR EMAX, Jurkat NFAT-luciferase, HCT116 target cells",[2],1.8 fold
same,"shift of the EGFR CAR EMAX, SiHa target cells",[2],> 4 fold
same,"shift of the MSLN CAR EMAX, K562 target cells",[2],> 5 fold
same,"suppression of pan HLA scFv CAR activators, HLA-A*02-positive T2 cells, E:T 1:2",[2],< 25 fold
